Source: PMC4786781

How the values were obtained:
[1] = target: T1, Spo0J R82A R82A (Bacillus subtilis) (UniProt P26497); assay: single-molecule PIFE kinetics, koff/kon; settings: 150 mM NaCl, kon 2.1±0.2e6 M-1 s-1, koff 0.16±0.01 s-1, Cy3-dUTP randomly incorporated, about 1 per kb, PIFE: 20 mM Tris pH 7.5, 100 ug/ml BSA, 100 mM NaCl (150 mM for Spo0J R82A Kd), flow 100 ul/min, BLItz: 20 mM Tris pH 7.5, 150 mM NaCl, 0.02% …
T1 sequence: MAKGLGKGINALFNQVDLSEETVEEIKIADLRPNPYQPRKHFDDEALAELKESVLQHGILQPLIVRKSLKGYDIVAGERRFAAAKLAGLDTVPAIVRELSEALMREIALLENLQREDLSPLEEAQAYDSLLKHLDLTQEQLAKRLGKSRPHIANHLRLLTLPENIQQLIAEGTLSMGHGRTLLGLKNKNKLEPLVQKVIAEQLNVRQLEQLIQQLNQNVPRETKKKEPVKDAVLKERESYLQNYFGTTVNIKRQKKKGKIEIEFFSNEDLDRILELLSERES

HBsu (Bacillus subtilis) = assay: single-molecule PIFE and DNA length, two-state model; settings: Cy3-dUTP randomly incorporated, about 1 per kb, PIFE: 20 mM Tris pH 7.5, 100 ug/ml BSA, 100 mM NaCl (150 mM for Spo0J R82A Kd), flow 100 ul/min, BLItz: 20 mM Tris pH 7.5, 150 mM NaCl, 0.02% …
[2] = target: T1, Spo0J R82A R82A (Bacillus subtilis); assay: single-molecule PIFE, steady state, Hill fit (n=0.8±0.2); settings: 150 mM NaCl, apparent Kd, Cy3-dUTP randomly incorporated, about 1 per kb, PIFE: 20 mM Tris pH 7.5, 100 ug/ml BSA, 100 mM NaCl (150 mM for Spo0J R82A Kd), flow 100 ul/min, BLItz: 20 mM Tris pH 7.5, 150 mM NaCl, 0.02% …

Substance: 20-kb Cy3-labelled DNA
- Kd [1]: 76.2 nM
- Kd (HBsu (Bacillus subtilis); K1, high-affinity bending mode, first dimer): 13 nM
- Kd (HBsu (Bacillus subtilis); K2, low-affinity filament mode, second dimer): 390 nM
- Kd [2]: 60.5 nM
